Experimental data as given in US20100204100A1, “BIOLOGICAL AGENTS ACTIVE IN CENTRAL NERVOUS SYSTEM” (THE JOHNS HOPKINS UNIVERISTY, priority 2007, published 2010).
“Also recorded” adds a separate entry of the source.

Legend:
[1] = tested on: interaction between NR2A/2B and PSD-95; assay: In vivo binding assay (co-immunoprecipitation) from spinal cord homogenates of treated mice; parameters: species or system mouse; details: 8 mg/kg intraperitoneal
Experimental: In Vitro and In Vivo Binding Assays. […] Membrane-bound proteins from the spinal lumbar enlargement segments were extracted as described previously (Tao, et al., 2003a). For in vitro binding experiments (GST pull-down), the solubilized membrane fraction and GST fusion peptide were first preincubated with different concentrations of Tat-PSD-95 PDZ2 at room temperature for 30 min. Then the membrane fraction was mixed with the GST fusion peptide at room temperature for 1 h. The resin was washed five times with washing buffer (PBS plus 500 mM NaCl and 0.1% Triton X-100) and then boiled in 1×SDS-PAGE sample buffer to elute the bound proteins. After being separated by electrophoresis, the proteins were detected by immunoblotting with anti-GST antibody (Santa Cruz Biotechnology, Santa Cruz, Calif.) and anti-NR2B antibody (Upstate Biotechnology, Lake Placid, N.Y.). For in vivo binding experiments (co-immunoprecipitation), 5 μg of the affinity-purified rabbit NR2A/2B antibody (Chemicon, Temecula, Calif.) was incubated with 100 μl of protein A-Sepharose slurry for 1 h, and the complex was spun down at 2000 rpm for 4 min. The solubilized membrane fraction (500 μg) from the different groups of treated mice as mentioned-above then was added to the Sepharose beads, and the mixture was incubated for 2-3 h at 4° C. The mixture was washed once with 1% Triton X-100 in immunoprecipitation buffer [containing (in mM): 137 sodium chloride, 2.7 potassium chloride, 4.3 disodium hydrogen phosphate, 1.4 potassium dihydrogen phosphate, 5 ethylene glycol tetraacetic acid, 1 sodium vanadate, 10 sodium pyrophosphate, 50 sodium fluoride, 0.1 phenylmethylsulfonyl fluoride, and 20 U/ml Trasylol], twice with 1% Triton X-100 in immunoprecipitation buffer plus 300 mM sodium chloride, and three times with immunoprecipitation buffer. The proteins were separated by SDS-PAGE and detected by NR2A/2B or PSD-95 antibody (Upstate Biotechnology, Lake Placid, N.Y.). As a positive control (input), 50 μg of the solubilized membrane fraction was loaded onto the gel. […]

[2] = target: T1, interactions between NMDA receptor NR2B and PSD-95 protein (Mus musculus, UniProt Q01097); assay: In vitro binding assay (GST pull-down) with GST-PSD-95 PDZ1,2 and spinal membrane fraction; details: for effect on interactions between GST-PSD-95 PDZ1,2 and NR2B (amount of NR2B pulled down): preincubation with different doses of peptide, 30 min; for effect on interactions between NMDAR NR2 subunits and PSD-95: summary of GST pull-down and co-immunoprecipitation (FIG. 2)
T1 construct: from tissue; host or cells: NR2B: solubilized membrane fraction of mouse spinal lumbar enlargement
Experimental: In Vitro and In Vivo Binding Assays. […] Membrane-bound proteins from the spinal lumbar enlargement segments were extracted as described previously (Tao, et al., 2003a). For in vitro binding experiments (GST pull-down), the solubilized membrane fraction and GST fusion peptide were first preincubated with different concentrations of Tat-PSD-95 PDZ2 at room temperature for 30 min. Then the membrane fraction was mixed with the GST fusion peptide at room temperature for 1 h. The resin was washed five times with washing buffer (PBS plus 500 mM NaCl and 0.1% Triton X-100) and then boiled in 1×SDS-PAGE sample buffer to elute the bound proteins. After being separated by electrophoresis, the proteins were detected by immunoblotting with anti-GST antibody (Santa Cruz Biotechnology, Santa Cruz, Calif.) and anti-NR2B antibody (Upstate Biotechnology, Lake Placid, N.Y.). For in vivo binding experiments (co-immunoprecipitation), 5 μg of the affinity-purified rabbit NR2A/2B antibody (Chemicon, Temecula, Calif.) was incubated with 100 μl of protein A-Sepharose slurry for 1 h, and the complex was spun down at 2000 rpm for 4 min. The solubilized membrane fraction (500 μg) from the different groups of treated mice as mentioned-above then was added to the Sepharose beads, and the mixture was incubated for 2-3 h at 4° C. The mixture was washed once with 1% Triton X-100 in immunoprecipitation buffer [containing (in mM): 137 sodium chloride, 2.7 potassium chloride, 4.3 disodium hydrogen phosphate, 1.4 potassium dihydrogen phosphate, 5 ethylene glycol tetraacetic acid, 1 sodium vanadate, 10 sodium pyrophosphate, 50 sodium fluoride, 0.1 phenylmethylsulfonyl fluoride, and 20 U/ml Trasylol], twice with 1% Triton X-100 in immunoprecipitation buffer plus 300 mM sodium chloride, and three times with immunoprecipitation buffer. The proteins were separated by SDS-PAGE and detected by NR2A/2B or PSD-95 antibody (Upstate Biotechnology, Lake Placid, N.Y.). As a positive control (input), 50 μg of the solubilized membrane fraction was loaded onto the gel.

[3] = tested on: CFA-induced inflammatory pain behaviors; assay: CFA-induced inflammatory pain behaviors, paw withdrawal threshold (von Frey filaments); assay type: in vivo, mouse; details: vs vehicle
Experimental: Intrathecal Injection of Tat Fusion Peptides. Intrathecal injection was performed in unanesthetized mice as previously described (Hylden and Wilcox, 1980; Tao, et al., 2003b; Tao, et al., 2004). In brief, the mouse was held firmly by the pelvic girdle in one hand, while a 10-μl Luer tip syringe with a 30 gauge 0.5-inch needle was held in the other hand at an angle of about 20° above the vertebral column. The needle was inserted into the tissue to one side of the L5 or L6 spinous process so that it slipped into the groove between the spinous and transverse processes. The needle was then moved carefully forward to the intervertebral space as the angle of the syringe was decreased to about 10°. […] The injection volume was 5 μl. The mice, assigned randomly to the experimental groups of 6-8, were given intrathecally Tat-PSD-95 PDZ2 or control peptide (mutated Tat-PSD-95 PDZ2 or PSD-95 PDZ2 without Tat PTD) 30 min before behavioral testing. Behavioral Analysis. Mechanical sensitivity of the mice was measured with von Frey filaments (Stoelting, Wood Dale, Ill.) as described previously (Yang and Gereau, 2003). Mice were placed in Plexiglas testing boxes with a 1×1 cm^2 wire-mesh grid floor and habituated for 3 h before experiments. Each von Frey filament was applied to the mouse hind paw in ascending order until it bent at approximately 30° for about 3 s. The smallest filament that evoked a paw withdrawal response was taken as the mechanical threshold (paw withdrawal threshold). Similar sites were selected for measuring mechanical thresholds in all tested animals, and the thresholds were measured at approximately the same site throughout the experiment for each individual animal. Two to three measurements were made before CFA or fusion peptides injection, and the average was calculated as the baseline. Established inflammatory pain behaviors were induced by intraplantar injection of CFA solution (20 μl, 1 mg/ml). To observe the effect of Tat-PSD-95 PDZ2 on the development of CFA-induced established inflammatory pain, the mice were given intraperitoneally Tat-PSD-95 PDZ2 or control peptide (mutated Tat-PSD-95 PDZ2 or PSD-95 PDZ2 without Tat) 2 h before CFA injection or intrathecally these peptides 1.5 h after CFA injection (development protocol); on the other hand, to observe the effect of Tat-PSD-95 PDZ2 on the maintenance of CFA-induced established inflammatory pain, the mice were given intraperitoneally these peptides 20 h after CFA injection or intrathecally these peptides 23.5 h after CFA injection (maintenance protocol). Behavioral measurements were conducted 2 h after CFA injection for the “development protocol” and 24 h after CFA injection for the “maintenance protocol”. The effect of Tat fusion peptide on CFA-induced established inflammatory pain behaviors was expressed as % of baseline.

[4] = intraperitoneal, Tat-PSD-95 PDZ2 2, 4, 8 mg/kg, control peptides 8 mg/kg, development and maintenance phases
[5] = intrathecal, Tat-PSD-95 PDZ2 2.5, 5, 10 μg/5 μl, control peptides 10 μg/5 μl

T1 sequence (Q01097 27-1482, other chains not shown): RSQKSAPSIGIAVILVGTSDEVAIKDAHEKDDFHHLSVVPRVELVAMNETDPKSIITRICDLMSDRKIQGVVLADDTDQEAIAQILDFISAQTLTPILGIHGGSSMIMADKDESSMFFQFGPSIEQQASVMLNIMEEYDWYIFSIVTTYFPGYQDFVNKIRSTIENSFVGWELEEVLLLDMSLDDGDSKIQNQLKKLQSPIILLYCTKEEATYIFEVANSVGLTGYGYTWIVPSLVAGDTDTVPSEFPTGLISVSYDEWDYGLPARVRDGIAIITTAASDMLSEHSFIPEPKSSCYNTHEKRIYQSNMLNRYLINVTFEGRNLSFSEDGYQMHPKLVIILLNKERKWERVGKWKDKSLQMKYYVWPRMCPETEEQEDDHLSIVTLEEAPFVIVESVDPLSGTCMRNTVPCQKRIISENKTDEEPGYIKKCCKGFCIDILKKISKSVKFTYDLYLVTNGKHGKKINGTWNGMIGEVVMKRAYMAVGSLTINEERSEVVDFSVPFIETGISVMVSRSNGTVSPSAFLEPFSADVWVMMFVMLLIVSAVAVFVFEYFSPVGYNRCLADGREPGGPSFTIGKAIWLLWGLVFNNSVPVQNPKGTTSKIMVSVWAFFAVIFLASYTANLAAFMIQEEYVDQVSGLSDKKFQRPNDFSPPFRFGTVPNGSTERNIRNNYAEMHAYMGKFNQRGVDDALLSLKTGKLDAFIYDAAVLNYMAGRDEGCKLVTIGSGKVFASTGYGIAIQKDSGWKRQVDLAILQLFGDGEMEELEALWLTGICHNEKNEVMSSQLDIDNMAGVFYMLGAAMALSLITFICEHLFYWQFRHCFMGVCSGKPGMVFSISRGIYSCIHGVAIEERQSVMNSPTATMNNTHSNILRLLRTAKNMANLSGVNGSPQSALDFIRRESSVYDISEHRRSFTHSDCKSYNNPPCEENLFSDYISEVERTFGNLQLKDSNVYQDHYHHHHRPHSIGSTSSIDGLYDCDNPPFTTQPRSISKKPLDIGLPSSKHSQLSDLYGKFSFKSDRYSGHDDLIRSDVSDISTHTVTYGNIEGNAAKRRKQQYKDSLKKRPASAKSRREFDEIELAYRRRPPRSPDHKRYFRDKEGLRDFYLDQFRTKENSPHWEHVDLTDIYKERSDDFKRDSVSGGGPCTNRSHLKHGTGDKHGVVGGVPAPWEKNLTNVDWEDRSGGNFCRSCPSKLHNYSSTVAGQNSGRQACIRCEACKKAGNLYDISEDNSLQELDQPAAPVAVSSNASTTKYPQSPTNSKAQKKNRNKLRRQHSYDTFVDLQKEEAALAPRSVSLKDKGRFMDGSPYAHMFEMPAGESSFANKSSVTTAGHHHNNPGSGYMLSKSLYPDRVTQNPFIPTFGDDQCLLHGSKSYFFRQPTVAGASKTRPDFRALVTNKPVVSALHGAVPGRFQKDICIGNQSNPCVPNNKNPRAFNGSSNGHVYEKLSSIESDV

Molecule	effect on interaction between NR2A/2B and PSD-95, co-immunoprecipitation [1]	effect on NR2B being pulled down at high dose ([2]; 16 μg peptide)	effect on interactions between GST-PSD-95 PDZ1,2 and NR2B (amount of NR2B pulled down) [2]	effect on interactions between NMDAR NR2 subunits and PSD-95 [2]	effect on CFA-induced decrease of paw withdrawal threshold, ipsilateral side [3, 4]	effect on CFA-induced decrease of paw withdrawal threshold, ipsilateral side [3, 5]
Tat-PSD-95 PDZ2: His-tagged fusion peptide: HIV Tat minimal transduction domain (residues 47-57) fused to the second PDZ domain of PSD-95 (protein) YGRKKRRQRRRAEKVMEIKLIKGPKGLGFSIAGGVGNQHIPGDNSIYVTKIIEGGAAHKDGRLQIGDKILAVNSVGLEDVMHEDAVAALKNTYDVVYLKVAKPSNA	markedly disrupted; also recorded: markedly blocked	completely prevented	dose-dependently inhibited; also recorded: dose-dependently reduced	markedly disrupted	significantly inhibited; also recorded: dose-dependently inhibited	significantly inhibited; also recorded: dose-dependently inhibited
mutated Tat-PSD-95 PDZ2: Control fusion peptide: Tat-PSD-95 PDZ2 with three sites critical for NMDAR/PSD-95 interaction mutated (K165T, L170R and H182L) (protein) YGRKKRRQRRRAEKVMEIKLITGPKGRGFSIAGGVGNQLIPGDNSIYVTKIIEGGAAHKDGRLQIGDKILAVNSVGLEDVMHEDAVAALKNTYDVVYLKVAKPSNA	no effect; also recorded: neither mutated Tat-PSD-95 PDZ2 (8 mg/kg) nor PSD-95 PDZ2 (8 mg/kg) had an effect		no effect	no effect	no effect	no effect
PSD-95 PDZ2: Control peptide containing the same sequences as Tat-PSD-95 PDZ2 but without Tat PTD (protein) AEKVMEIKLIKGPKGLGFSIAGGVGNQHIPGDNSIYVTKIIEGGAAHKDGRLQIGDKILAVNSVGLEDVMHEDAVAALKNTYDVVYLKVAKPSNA	neither mutated Tat-PSD-95 PDZ2 (8 mg/kg) nor PSD-95 PDZ2 (8 mg/kg) had an effect				no effect	no effect
